A word on the IC50: it is the midpoint of a concentration-inhibition curve. Read a high IC50 as lower potency. What is called koff is a measure of how fast the partners let go of each other. Low values mean a long-lived complex, high ones a short-lived complex. As usually defined, the kon is the rate constant with which the complex forms. Higher therefore signals faster complex formation. For orientation: Kd means the free concentration of one partner at which half of the binding sites on the other are occupied at equilibrium, for simple one-to-one binding. A lower Kd goes with higher affinity.

Here are results for 3 molecules from US20160304578A1 (XYPHOS BIOSCIENCES, published 2016).

B1: WT α1-α2 soluble MICA protein (ligand, UniProt Q29983 24-299, looked up)
chain: EPHSLRYNLTVLSWDGSVQSGFLTEVHLDGQPFLRCDRQKCRAKPQGQWAEDVLGNKTWDRETRDLTGNGKDLRMTLAHIKDQKEGLHSLQEIRVCEIHEDNSTRSSQHFYYDGELFLSQNLETKEWTMPQSSRAQTLAMNVRNFLKEDAMKTKTHYHAMHADCLQELRRYLKSGVVLRRTVPPMVNVTRSEASEGNITVTCRASGFYPWNITLSWRQDGVSLSHDTQQWGDVLPDGNGTYQTWVATRICQGEEQRFTCYMEHSGNHSTHPVPSGK
notes: also called WT MICA; WT NKG2DL
B2: biotinylated human NKG2D (receptor, UniProt P26718 78-216, looked up)
chain: FLNSLFNQEVQIPLTESYCGPCPKNWICYKNNCYQFFDESKNWYESQASCMSQNASLLKVYSKEDQDLLKLVKSYHWMGLVHIPTNGSWQWEDGSILSPNLLTIIEMQKGDCALYASSFKGYIENCSTPNTYICMQRTV
modifications: biotinylated (site not stated)
notes: also called recombinant biotinylated NKG2D

The target in one test is T1, human NKG2D-Fc (human, UniProt P26718 78-216, limits assumed).
T1 construct: not shown: Fc part
T1 sequence (looked up): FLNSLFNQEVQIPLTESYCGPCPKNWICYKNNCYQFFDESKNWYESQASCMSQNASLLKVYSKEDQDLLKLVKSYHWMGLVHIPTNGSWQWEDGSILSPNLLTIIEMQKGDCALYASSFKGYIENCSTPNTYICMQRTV
Put plainly: competition ELISA: inhibits 2 nM human NKG2D-Fc binding to plate-coated WT sMICA.

Test [1] addresses B1. Put plainly: biolayer interferometry (Octet), surface-coated biotinylated human NKG2D, 100 nM protein. (Biolayer interferometry detects binding as a change in optical thickness at a sensor tip.)
Test [2] addresses B1. Put plainly: biolayer interferometry (Octet), Kd = kOFF/kON.
Test [3] deals with B2. Put plainly: biolayer interferometry (Octet), Kd = kOFF/kON.
Description: (§1) In order to characterize the NKG2D binding affinities, both the on-rates and off-rates for the three α1-α2 variant NKG2DLs binding to surface-coated biotinylated human NKG2D were measured using biolayer interferometry (Octet). Binding titrations were performed for each protein using a titration range of 1-100 nM, and the kinetic data were fitted to obtain on-rates, off-rates, and equilibrium binding constants.
Test [4] addresses B2. Put plainly: biolayer interferometry (Octet), biotinylated human NKG2D; the reference is not named.
Description: as §1
Test [5] addresses B2. Put plainly: biolayer interferometry (Octet), surface-coated biotinylated human NKG2D, titration 1-100 nM.
Description: as §1

Excerpt for human NKG2D-Fc: Using a competitive binding ELISA, we determined the relative NKG2D binding affinities of the 4 modified α1-α2 variants.

B1: in the test with human NKG2D-Fc, the IC50 was found to be 19.4 nM.
Consider B2, for which, in test [1], the koff turned out to be 0.0018 s⁻¹ and the kon was 130000 M⁻¹ s⁻¹. Further, the Kd in test [2] came out at 13.8 nM.

B3: α1-α2 variant 48 (designed binder)
chain: EPHSLRYNLTVLSWDGSVQSGFLTEVHLDGQPFLRCDRQKCRAKPQGQWAEDVLGNKTWDRETRDLTGWGKDLRMTLAHIKDQKEGLHSLQEIRVCEIHEDNSTRSSQHFYYDGELFLSQNLETLEWTMPQSSRAQTLAMNVRNFLKEDAMATDTHYIAMRADCLAELRRYLKSGVVLRRTVPPMVQVTRSEASGGSGDRVTITCRASQDVSTAVAWYQQKPGKAPKLLIYSASFLYSGVPSRFSGSGSGTDFTLTISSLQPEDFATYYCQQSYTTPPTFGQGTKVEIKGGSSRSSSSGGGGSGGGGEVQLVESGGGLVQPGGSLRLSCAASGFTFTSTGISWVRQAPGKGLEWVGRIYPTNGSTNYADSVKGRFTISADTSKNTAYLQMNSLRAEDTAVYYCARTYGIYDLYVDYTEYVMDYWGQGTLVTVSSGGSSRSSSSGGGGSGGGGDIQMTQSPSSLSASGGSGQITVTCRASGFYPWNITLSWRQDGVSLSHDTQQWGDVLPDGQGTYQTWVATRISQGEEQRFTCYMEHSGQHSTHPVPSGKGSHHHHHH
notes: Expressed in HEK293 (Expi293)
In the test with biotinylated human NKG2D [3], B3 gave a Kd of 15 nM. Besides, the “fold reduction in NKG2D binding affinity” value in the test with biotinylated human NKG2D [4] stood at 250 fold. In addition, in the test with biotinylated human NKG2D [5], the koff was found to be 0.003 s⁻¹ and the association rate constant (kon) came out at 200000 M⁻¹ s⁻¹.
